In patent publication US9249224B2 (RINAT NEUROSCIENCE CORP., priority 2011, dated 2016):

Test system: ALS
Assay: Serum ALS levels in cynomolgus monkeys after a single antibody dose
Assay type: in vivo, cynomolgus monkey
Settings: for serum ALS levels decreased to about: by 96 hours; for serum ALS decrease below control: by 72 hours
Procedure: To determine if GHR antagonist monoclonal antibodies can affect IGF-1, IGFBP-3, and ALS levels in vivo by inhibiting the function of GHR, the effect of humanized anti-human GHR antibody SS1 was tested in cynomolgus monkeys. A dose-response study was conducted to test for changes in IGF-1, IGFBP-3, and ALS levels following a single dose of SS1. Eight naïve female cynomolgus monkeys were injected intravenously with a single dose of SS1 or negative control human IgG2, in 1×PBS 0.01% Tween™ 20. Two monkeys were dosed with 30 mg/kg SS1, two were dosed with 10 mg/kg SS1, two were dosed with 3 mg/kg SS1, and two were dosed with 30 mg/kg negative control human IgG2Δa on Day 1. […] Serum was also taken from the 30 mg/kg SS1 and negative control treated animals at 864 h post-dose.
Serum samples were analyzed for changes in ALS levels compared to baseline using a BioVendor™ Human ALS ELISA kit (cat. #RMEE35R).
Six naïve female cynomolgus monkeys were injected either intravenously or subcutaneously with a single dose of […] or negative control human IgG2Δa in 1×PBS 0.01% Tween™ 20. Two monkeys were dosed with 3 mg/kg SS1 intravenously, two were dosed with 3 mg/kg SS1 subcutaneously, and two were dosed with 3 mg/kg negative control human IgG2Δa subcutaneously on Day 1. Serum samples were taken from all animals at the following timepoints: pre-dose, 24 h, 72 h, 120 h, 168 h, 216 h, 264 h, 312 h, 360 h, 408 h, 456 h and 504 h.

B1: SS1: humanized GHR antagonist antibody; VL SEQ ID NO: 7, VH SEQ ID NO: 8; hIgG2Δa heavy chain SEQ ID NO: 134, light chain SEQ ID NO: 135 (antibody)
heavy: EVQLVESGGGLVKPGGSLRLSCAASGFTFSDAWMDWVRQAPGKGLEWVAEIRSKANYHATYYAESVKGRFTISRDDSKNTLYLQMNSLKTEDTAVYYCTLIRDYWGQGTLVTVSSASTKGPSVFPLAPCSRSTSESTAALGCLVKDYFPEPVTVSWNSGALTSGVHTFPAVLQSSGLYSLSSVVTVPSSNFGTQTYTCNVDHKPSNTKVDKTVERKCCVECPPCPAPPVAGPSVFLFPPKPKDTLMISRTPEVTCVVVDVSHEDPEVQFNWYVDGVEVHNAKTKPREEQFNSTFRVVSVLTVVHQDWLNGKEYKCKVSNKGLPSSIEKTISKTKGQPREPQVYTLPPSREEMTKNQVSLTCLVKGFYPSDIAVEWESNGQPENNYKTTPPMLDSDGSFFLYSKLTVDKSRWQQGNVFSCSVMHEALHNHYTQKSLSLSPGK
light: EIVLTQSPGTLSLSPGERATLSCTATSSVSSSYLNWYQQKPGQAPRLLIYSTSNLASGIPDRFSGSGSGTDFTLTISRLEPEDFAVYYCHQYHRSTPTFGGGTKVEIKRTVAAPSVFIFPPSDEQLKSGTASVVCLLNNFYPREAKVQWKVDNALQSGNSQESVTEQDSKDSTYSLSSTLTLSKADYEKHKVYACEVTHQGLSSPVTKSFNRGEC
modifications: Humanized and/or affinity matured antibody sequence
serum ALS levels (% change from baseline) (Table 12, cynomolgus monkeys, SS1 3 mg/kg IV single dose, 24 h post-injection): −23.0 +/− 4.0%
serum ALS levels (% change from baseline) (Table 12, cynomolgus monkeys, SS1 3 mg/kg IV single dose, 48 h post-injection): −41.7 +/− 3.6%
serum ALS levels (% change from baseline) (Table 12, cynomolgus monkeys, SS1 3 mg/kg IV single dose, 72 h post-injection): −45.4 +/− 0.9%
serum ALS levels (% change from baseline) (Table 12, cynomolgus monkeys, SS1 3 mg/kg IV single dose, 96 h post-injection): −50.7 +/− 2.3%
serum ALS levels (% change from baseline) (Table 12, cynomolgus monkeys, SS1 3 mg/kg IV single dose, 120 h post-injection): −48.0 +/− 0.4%
serum ALS levels (% change from baseline) (Table 12, cynomolgus monkeys, SS1 3 mg/kg IV single dose, 144 h post-injection): −45.5 +/− 8.4%
serum ALS levels (% change from baseline) (Table 12, cynomolgus monkeys, SS1 3 mg/kg IV single dose, 192 h post-injection): −50.7 +/− 8.8%
serum ALS levels (% change from baseline) (Table 12, cynomolgus monkeys, SS1 3 mg/kg IV single dose, 312 h post-injection): −22.0 +/− 8.2%
serum ALS levels (% change from baseline) (Table 12, cynomolgus monkeys, SS1 3 mg/kg IV single dose, 336 h post-injection): −23.7 +/− 6.4%
serum ALS levels (% change from baseline) (Table 12, cynomolgus monkeys, SS1 10 mg/kg IV single dose, 24 h post-injection): 27.3 +/− 32.1%
serum ALS levels (% change from baseline) (Table 12, cynomolgus monkeys, SS1 10 mg/kg IV single dose, 48 h post-injection): −9.4 +/− 23.4%
serum ALS levels (% change from baseline) (Table 12, cynomolgus monkeys, SS1 10 mg/kg IV single dose, 72 h post-injection): −8.0 +/− 35.2%
serum ALS levels (% change from baseline) (Table 12, cynomolgus monkeys, SS1 10 mg/kg IV single dose, 96 h post-injection): −24.1 +/− 23.6%
serum ALS levels (% change from baseline) (Table 12, cynomolgus monkeys, SS1 10 mg/kg IV single dose, 120 h post-injection): −17.5 +/− 30.4%
serum ALS levels (% change from baseline) (Table 12, cynomolgus monkeys, SS1 10 mg/kg IV single dose, 144 h post-injection): −46.5 +/− 1.9%
serum ALS levels (% change from baseline) (Table 12, cynomolgus monkeys, SS1 10 mg/kg IV single dose, 192 h post-injection): −39.4 +/− 3.3%
serum ALS levels (% change from baseline) (Table 12, cynomolgus monkeys, SS1 10 mg/kg IV single dose, 312 h post-injection): −38.7 +/− 4.1%
serum ALS levels (% change from baseline) (Table 12, cynomolgus monkeys, SS1 10 mg/kg IV single dose, 336 h post-injection): −40.4 +/− 0.4%
serum ALS levels (% change from baseline) (Table 12, cynomolgus monkeys, SS1 30 mg/kg IV single dose, 24 h post-injection): 3.9 +/− 4.2%
serum ALS levels (% change from baseline) (Table 12, cynomolgus monkeys, SS1 30 mg/kg IV single dose, 48 h post-injection): −35.1 +/− 1.9%
serum ALS levels (% change from baseline) (Table 12, cynomolgus monkeys, SS1 30 mg/kg IV single dose, 72 h post-injection): −34.9 +/− 10.5%
serum ALS levels (% change from baseline) (Table 12, cynomolgus monkeys, SS1 30 mg/kg IV single dose, 96 h post-injection): −48.8 +/− 8.0%
serum ALS levels (% change from baseline) (Table 12, cynomolgus monkeys, SS1 30 mg/kg IV single dose, 120 h post-injection): −41.2 +/− 13.9%
serum ALS levels (% change from baseline) (Table 12, cynomolgus monkeys, SS1 30 mg/kg IV single dose, 144 h post-injection): −50.0 +/− 4.4%
serum ALS levels (% change from baseline) (Table 12, cynomolgus monkeys, SS1 30 mg/kg IV single dose, 192 h post-injection): −50.2 +/− 2.0%
serum ALS levels (% change from baseline) (Table 12, cynomolgus monkeys, SS1 30 mg/kg IV single dose, 312 h post-injection): −47.1 +/− 2.7%
serum ALS levels (% change from baseline) (Table 12, cynomolgus monkeys, SS1 30 mg/kg IV single dose, 336 h post-injection): −50.1 +/− 4.4%
serum ALS levels (% change from baseline) (Table 14, cynomolgus monkeys, SS1 3 mg/kg IV single dose, 24 hour post-injection): −4.5 +/− 4.6%
serum ALS levels (% change from baseline) (Table 14, cynomolgus monkeys, SS1 3 mg/kg IV single dose, 72 hour post-injection): −31.1 +/− 10.1%
serum ALS levels (% change from baseline) (Table 14, cynomolgus monkeys, SS1 3 mg/kg IV single dose, 120 hour post-injection): −37.5 +/− 9.4%
serum ALS levels (% change from baseline) (Table 14, cynomolgus monkeys, SS1 3 mg/kg IV single dose, 168 hour post-injection): −32.9 +/− 4.0%
serum ALS levels (% change from baseline) (Table 14, cynomolgus monkeys, SS1 3 mg/kg IV single dose, 264 hour post-injection): −9.3 +/− 2.5%
serum ALS levels (% change from baseline) (Table 14, cynomolgus monkeys, SS1 3 mg/kg IV single dose, 312 hour post-injection): −4.9 +/− 3.0%
serum ALS levels (% change from baseline) (Table 14, cynomolgus monkeys, SS1 3 mg/kg IV single dose, 360 hour post-injection): −9.7 +/− 9.6%
serum ALS levels (% change from baseline) (Table 14, cynomolgus monkeys, SS1 3 mg/kg SQ single dose, 24 hour post-injection): −15.9 +/− 0.2%
serum ALS levels (% change from baseline) (Table 14, cynomolgus monkeys, SS1 3 mg/kg SQ single dose, 72 hour post-injection): −42.7 +/− 0.5%
serum ALS levels (% change from baseline) (Table 14, cynomolgus monkeys, SS1 3 mg/kg SQ single dose, 120 hour post-injection): −41.1 +/− 7.1%
serum ALS levels (% change from baseline) (Table 14, cynomolgus monkeys, SS1 3 mg/kg SQ single dose, 168 hour post-injection): −33.7 +/− 6.5%
serum ALS levels (% change from baseline) (Table 14, cynomolgus monkeys, SS1 3 mg/kg SQ single dose, 264 hour post-injection): −16.5 +/− 13.2%
serum ALS levels (% change from baseline) (Table 14, cynomolgus monkeys, SS1 3 mg/kg SQ single dose, 312 hour post-injection): −5.0 +/− 13.6%
serum ALS levels (% change from baseline) (Table 14, cynomolgus monkeys, SS1 3 mg/kg SQ single dose, 360 hour post-injection): −10.0 +/− 10.2%
serum ALS levels decreased to about (cynomolgus monkeys, SS1 3 mg/kg IV single dose): about 51%
serum ALS levels decreased to about (cynomolgus monkeys, SS1 10 mg/kg IV single dose): ~24%
serum ALS levels decreased to about (cynomolgus monkeys, SS1 30 mg/kg IV single dose): ~49%
time by which serum ALS levels returned to baseline levels (cynomolgus monkeys, single dose 3 mg/kg SS1 SQ or IV): ≤ 312 h
serum ALS decrease below control (cynomolgus monkeys, single dose 3 mg/kg SS1 intravenous (IV)): about 31%
serum ALS decrease below control (cynomolgus monkeys, single dose 3 mg/kg SS1 subcutaneous (SQ)): about 43%
effect on serum ALS levels in cynomolgus monkey (single IV dose 3, 10 or 30 mg/kg): reduces serum ALS levels
